30 sequences from the nanobody polyreactivity screen of Harvey et al. (2022) can be followed below.

The data set is described as follows: yeast display, Sf9 membrane polyspecificity reagent, FACS + sequencing; frameworks hold sequencing errors. The essentials: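 A synthetic nanobody library was expressed on Saccharomyces cerevisiae BJ5465 by galactose induction for 36–48 hours. The library was stained for 1 hour at 4 °C with 10% biotinylated, detergent-solubilized Sf9 membrane reagent and enriched with streptavidin microbeads before FACS. Low and high (top ~1%) gates were set on anti-HA fluorescence for expression and streptavidin fluorescence for reagent binding, and each polyreactivity label reflects the gate of origin.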
On to “QVQLVESGGGLVQAGGSLRLSCAASGSTFTHYDMGWYRQAPGKERELVADISRSGGRTYYADSVKGRFTISRDNAKNTVYLQMNSLKPEDTAVYYCATEFEHINGVNQGPYIDDYSWGQGSQVTVSS”, for which the “polyreactivity (PSR sort gate)” value was “low polyreactivity”.

Turning to “QVQLVESGGGLVQAGGSLRLSCAASGSTFTINVMGSYRQAPGKERELVAAINGGGRTNYADSVKGRFTISRDNAKNTVYLQMNSLKPEDTAVYYCAADGLSNVRQMDYWGQGTQVTVSS”, the “polyreactivity (PSR sort gate)” value is reported as “low polyreactivity”.

“QVQLVESGGGLVQAGGSLRLSCAASGSTFTIYAMGWYRQAPGKERELVAAITWNGGSTYYADSVKGRFTISRDNAKKTVYLQMNRLKPEDTAVYYCAAKFRYQYVRVAREYYYWGQGTQVTVSS”: the “polyreactivity (PSR sort gate)” value is “high polyreactivity”.

Take “QVQLVESGGGLVQAGGSLRLSCAASGSTFTIYAMGWYRQAPGKERELVAGITRVGSTNYADSVKGRFTISRDNAKYTVYLQMNSLKPEDTAVYYCARRDLFQAGYEYWGQGTQVTVSS”: the “polyreactivity (PSR sort gate)” value was “low polyreactivity”.

For the sequence “QVQLVESGGGLVQAGGSLRLSCAASGSTFTIYDMGWSRQAPGKERELVASISQGAGSTYYADSVKGRFTISRDNAKNTVYLQMNSQKPEDTAVYYCAADWYQSYVFVYWEGEYWAQGTQVTVSS”, the “polyreactivity (PSR sort gate)” value is on record as “high polyreactivity”.

With “QVQLVESGGGLVQAGGSLRLSCAASGSTFTIYVIGWYRTAPGKERELVAAINGGGRTNYADSVKGRFTISRDNAKNTVYLQMNSLKPEDTAVYYCAADGLSNVRQMDYWGQGTQVTVSS”, the “polyreactivity (PSR sort gate)” value is “low polyreactivity”.

“QVQLVESGGGLVQAGGSLRLSCAASGSTFTKYAMGWYRQEPGKDREFVAGINYSGGSTYYADSVKVRFTISRDNAKNTVYLLMKSLKPEDTAVYYCNARKQNRRGAKYDYWGQGTQVTVSS”: the “polyreactivity (PSR sort gate)” value is listed as “high polyreactivity”.

Consider “QVQLVESGGGLVQAGGSLRLSCAASGSTFTLNAMGWYRQAPGKERELVADISWSSGRTYYADSVKGRFTISRDNAKNTVYFQMNSLKPEDTAVYYCATDDFWNVKFYAYYPEFDYWGQGTQVTVSS”, for which the “polyreactivity (PSR sort gate)” value is on record as “low polyreactivity”.

Turning to “QVQLVESGGGLVQAGGSLRLSCAASGSTFTLNAMGWYRQAPGKERELVADISWSSGRTYYADSVKGRVTISRDNAKNTVYLQMNSLKPEDTAVYYCATDDFWNVKFYAYYPDFDHWGQGTQVTVSS”, the “polyreactivity (PSR sort gate)” value is listed as “low polyreactivity”.

As to “QVQLVESGGGLVQAGGSLRLSCAASGSTFTLYAMGWYRQAPGKERELVAAISGIGDSTYYADSVKGRFTISRDNAKNTVYLQMNSLKPEDTAVYYCAADGEYRYDWEYESWGQGTKVTVSS”, the “polyreactivity (PSR sort gate)” value was “low polyreactivity”.

In the case of “QVQLVESGGGLVQAGGSLRLSCAASGSTFTLYAMGWYRQAPGKERELVAAISWSSGSTYYADSVKGRFTISRDNAKNTVYLQMNSLKPEDTAVYYCNARRFGLTQYYYWGQGTQVTVSS”, the “polyreactivity (PSR sort gate)” value is “low polyreactivity”.

As for “QVQLVESGGGLVQAGGSLRLSCAASGSTFTLYAMGWYRQAPGKERELVAAISWSTTSTYYADSVKGRFTISRDNAKNTVYLQMNSLKPEDTAVYYCAAELYRAEYDYWGQGTQVTVSS”, the “polyreactivity (PSR sort gate)” value is “high polyreactivity”.

“QVQLVESGGGLVQAGGSLRLSCAASGSTFTNNDMGWYRPAPGKERELVAAITDSDGITYYADSVKGRFTISRDNAKNTVYLQMNSLKPDDSAVYYCAAYYYGSVAQDREYWGQGTQVTVSS”: the “polyreactivity (PSR sort gate)” value is recorded as “high polyreactivity”.

As for “QVQLVESGGGLVQAGGSLRLSCAASGSTFTNYAMGWYRPAPGKERELVARITSSGSRTYYADSVKGRFTISRDNAKNTVYLQMNSLKPEDTAVYYCNAETYYLRYGRGYRRFDYWGQGTQVTVSS”, the “polyreactivity (PSR sort gate)” value was “high polyreactivity”.

As to “QVQLVESGGGLVQAGGSLRLSCAASGSTFTPNAMGWYRQAPGKERELVAAIRYTGVGTYYADSVKGRFTISRDNAKNTVYLQMNSLKPEDTAVYYCNRVSRYYNYDYWGQGTQVTVSS”, the “polyreactivity (PSR sort gate)” value is on record as “high polyreactivity”.

Regarding “QVQLVESGGGLVQAGGSLRLSCAASGSTFTPNAMVWYRQAPGKERELVAAINWSDSSTYYADSVKGRFTISRDNAKNTVYLQMNSLKPEDTAVYYCAAAAQYGQLQVPVYYWGQGTQVTVSS”, the “polyreactivity (PSR sort gate)” value was “low polyreactivity”.

With “QVQLVESGGGLVQAGGSLRLSCAASGSTFTPYAMGWYRQAPGQEREFVAAITSIGGSTYYADSVKGRITISRDNAKNTVYLQMIRLKPEDTAVYNCAADYSEWTLWNDYWGQCTQVTVSS”, the “polyreactivity (PSR sort gate)” value is “high polyreactivity”.

“QVQLVESGGGLVQAGGSLRLSCAASGSTFTPYGMGWYRQAPGKERELVAAITVSGGRTYYADSVKGRFTISRDNAKNTVYLQMNSLKPEDTAVYYCAAVYLRGDGEYDYWGQGTQVTVSS”: the “polyreactivity (PSR sort gate)” value is listed as “low polyreactivity”.

In the case of “QVQLVESGGGLVQAGGSLRLSCAASGSTFTPYTMGWYRKAPGKETELVAAIRYGGGSTYYADSVKGRFTISRDNAKNTVYLQMNSLKPEDTAVYYCAVDSFYSGGTYDSDGYWGQGTQVTVSS”, the “polyreactivity (PSR sort gate)” value is given as “low polyreactivity”.

For the sequence “QVQLVESGGGLVQAGGSLRLSCAASGSTFTRNAMGWYRPAPGKERELVAAITSSGGYTYYADSVKGRFTISRDNAKNTVYLQMNSLKPEDTAVYYCAAYPHRPRDRELDHWGQGTQVTVSS”, the “polyreactivity (PSR sort gate)” value was “low polyreactivity”.

On to “QVQLVESGGGLVQAGGSLRLSCAASGSTFTRYVMGWYRQAPGKERELVAAISKRGGSTYYADSVKGRFTISRDNAKHTVYLQMNSLKPVDPAVYYCNRVSRAPFDYWGQGTQVTVSS”, for which the “polyreactivity (PSR sort gate)” value is recorded as “high polyreactivity”.

For the sequence “QVQLVESGGGLVQAGGSLRLSCAASGSTFTRYVMGWYRQAPGKERELVAAISKRGGSTYYADSVKGRFTISRDNAKNTVYLQMNSLKPEDTAVYYCNRVSRAPFDYWGQGTQVTVSS”, the “polyreactivity (PSR sort gate)” value was “high polyreactivity”.

“QVQLVESGGGLVQAGGSLRLSCAASGSTFTSNAMGWYRQAPGKEREFVAAISVGGGITYYADSVKGRFTISRDNAKISVYLQMNSLKPEDTAVYYCAADGEYPHSEDFEYWGQGTQVTVSS”: the “polyreactivity (PSR sort gate)” value was “low polyreactivity”.

Turning to “QVQLVESGGGLVQAGGSLRLSCAASGSTFTSNAMGWYRQAPGKERELVAAISFSDASTYYADSVKGRFTISRDNAKKTVYLQMNRLKPEDTAVYYCNADYPTTAYDYCGQGTQVTVSS”, the “polyreactivity (PSR sort gate)” value is listed as “low polyreactivity”.

Regarding “QVQLVESGGGLVQAGGSLRLSCAASGSTFTSNAMGWYRQAPGKERELVAAISSGGSTSYADSVKGRFSISRDNAKNTVYLQMNSLKPEDTAVYYCAVGVLYAGYFYRYRYYYWGQGTQVTVSS”, the “polyreactivity (PSR sort gate)” value is given as “high polyreactivity”.

On to “QVQLVESGGGLVQAGGSLRLSCAASGSTFTSNAMGWYRQAPGKERELVASISGSGGRTDYADSVKGRFTISRDNAKNTVYLQMNSLKPEDTAVYYCNAESRNLYSTQFDYWGQGTQVTVSS”, for which the “polyreactivity (PSR sort gate)” value is given as “low polyreactivity”.

In the case of “QVQLVESGGGLVQAGGSLRLSCAASGSTFTSNAMGWYRQAPGKERELVASISGSGGRTYYADSVKGRFTISRDNAKNTVYLQMNSLKPEDTAVYYCNAESRNLYSTQFDYLGQGTQVTVSS”, the “polyreactivity (PSR sort gate)” value is on record as “low polyreactivity”.

“QVQLVESGGGLVQAGGSLRLSCAASGSTFTSYAMGWYRQAPGKERELVAAINWSGGSTYYADSVKGRFTISRDIAKNTVYLQMNSLKPEDTAVYYCAVLYRYGYDYWGQGTQVTVSS”: the “polyreactivity (PSR sort gate)” value is “low polyreactivity”.

As to “QVQLVESGGGLVQAGGSLRLSCAASGSTFTSYAMGWYRQAPGKERELVAAITSRGGTSYADSVKGRFTISRDNAKNTVYLQMNSLKPEDTAVYYCAARATYKKYPYVKWYDYWGQGPQVTVSS”, the “polyreactivity (PSR sort gate)” value was “high polyreactivity”.

Take “QVQLVESGGGLVQAGGSLRLSCAASGSTFTSYAMGWYRQAPGKERELVAAITYGSGTTYADSVKGRFTISRDNAKNTVYLQMNSLKPEDTAVYYCAADFYYPVLGHGFPTYEYDYWGQGTQVTVSS”: the “polyreactivity (PSR sort gate)” value is on record as “low polyreactivity”.
